# Patent US20110286916A1 (published 2011)
# Substitutions are numbered along the chain they refer to.
# B1: hN1S3-040 (scFv, V domains shown)
# VH: EVQLVQSGPEVKKPGTSVKVSCKASGFTFTSSAVQWVRQARGQRLEWIGWIVVGSGNTNYAQKFQERVTITRDMSTSTAYMELSSLRSEDTAVYYCVADTVYWGRGTTVTVSS
# VL: QSVLTQPPSASGTPGQGVTISCSGSSSNIGRNSVNWYQQLPGTAPKLLIYGDNQRPSGVPDRFSGSKPGTSASLAISGLQSDDEAHYYCAAWDDSLNGWVFGGGTKVTVL
# notes: phage scFv
# B2: hN1S3-088 (scFv, V domains shown)
# VH: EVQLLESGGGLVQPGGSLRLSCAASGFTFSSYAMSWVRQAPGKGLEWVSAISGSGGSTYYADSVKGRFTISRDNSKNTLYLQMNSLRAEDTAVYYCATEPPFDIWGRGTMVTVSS
# VL: QSVLTQPPSVSGTPGQRVTISCSGSSSNIGNDVVNWYQQLPGTAPKLLIYNDYQRPSGVSDRFSGSKSGTSAYLAISGLQSEDEADYHCAVWDDSLDGWVFGGGTKLTVL
# notes: phage scFv
# B3: hN1S3-112 (scFv, V domains shown)
# VH: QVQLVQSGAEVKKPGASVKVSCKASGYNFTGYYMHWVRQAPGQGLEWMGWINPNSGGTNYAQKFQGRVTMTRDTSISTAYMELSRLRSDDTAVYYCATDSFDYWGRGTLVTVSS
# VL: LPVLTQPPSASGTPGQRVTISCSGSSSNIGNNYVYWYQQLPGTAPKLLIYRNNQRPSGVPDRFSASKSGTSASLVISGIRSEDEAEYYCGGWDDSLSGQVVFGGGTKLTVL
# notes: phage scFv
# B4: hN1S3-127 (scFv, V domains shown)
# VH: EVQLVQSGAEVKKPGASVKVSCKASGYNFTGYYMHWVRQAPGQGLEWMGWINPNSGGTNYAQKFQGRVTMTRDTSISTAYMELSRLRSDDTAVYYCATDSFDYWGQGTLVTVSS
# VL: QSVLTQPPSVSGAPGQRVTISCSGSTSNIGGNPVTWYQQFPGTAPKLLVYRDNQRPSGVADRFSGSRSGTSASLAISGLQSEDEADFYCASWDDSLGGVVFGGGTKLTVL
# notes: phage scFv
# B5: hN1S3-136 (scFv, V domains shown)
# VH: B4 VH with E1Q, V5Q, Q6E, Q106R, L109T
# VL: QAVLTQPSSESGTPGQRVTISCSGTTSNIGDNTVTWYQQLPGTAPKLLIYSNTQRPSGVPARFSGSKSGTSASLAISGLQSGDEADYYCAAWDDSRNGYVFGTGTKLTVL
# notes: phage scFv
# B6: hN1S3-177 (scFv, V domains shown)
# VH: B4 VH with T58A, Q106R
# VL: QAVLTQPSSASGTPGQRVTISCSGSSSNIGTNYVYWYQHLPGMAPKLLLYSNNQRPSGVPDRFSGSKSGPSASLAISGLRSEDEADYYCAAWDDSLSGLVFGGGTKLTVL
# notes: phage scFv
# B7: hN1S3-002 (scFv, V domains shown)
# VH: GVQLVQSGAEVKKPGASVKVSCKASGYTFTDYYVHWVRQAPGQGPEWMGWINPNNGGTKYAQKFQGRVTMTTDTSTSTAYMELRSLRSDDTALYYCARDLLPYYGDYRADKIDDFDIWGRGTLVTVSS
# VL: QSVLTQPPSASGTPGQRVTISCSGSSSNIGSNTVNWYQRLPGAAPQLLIYNNDQRPSGIPDRFSGSKSGTSGSLVISGLQSEDEADYYCASWDDSLNGRVFGGGTKLTVL
# notes: phage scFv
# B8: hN1S3-006 (scFv, V domains shown)
# VH: B4 VH with E1Q, M34I, T69I, Q106R
# VL: QAVLTQPSSASGTAGQRVTISCSGSNSNIGSNTVNWYQQLPGTTPKLLIYSNNERPSGVPDRFSGSKSGTSASLAISGLQSDDEADYYCAAWDDSLNGYVFGTGTKVTVL
# notes: phage scFv
# B9: hN1S3-030 (scFv, V domains shown)
# VH: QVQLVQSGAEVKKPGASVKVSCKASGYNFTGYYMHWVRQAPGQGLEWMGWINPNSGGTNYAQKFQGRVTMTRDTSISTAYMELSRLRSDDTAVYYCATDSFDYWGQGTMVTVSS
# VL: QSVLTQPPSASGTPGQRVSISCSGSSSNIGSNYVYWYQQLPGTAPKVLVYRNNQRPSGVSDRFSGSKYGTSASLAISGLRSEDEADYYCGSWDDSLSGVVFGGGTKVTVL
# notes: phage scFv
# B10: hN1S3-087 (scFv, V domains shown)
# VH: QVQLVQSGAEVKKPGASVRISCKTSGFTFTSYFIHWVRQAPGQRPEWMGVINPSRGNADYAPRFRGRVTMTRDKSTHTVYMDLKSLRSDDAAIYYCARDRLGGLLDYYDSSDSSKNFDAFDFWGQGTLVTVSS
# VL: NFMLTQPHSVSESPGKTVTISCTRSSGSIGSSYVQWYQQRPGTSPVTIIYEDSQRPSGVPDRFSGSIDNSANSASLTISGLKTEDEADYYCQSYDANNRVFGGGTKLTVL
# notes: phage scFv
# B11: hN1S3-107 (scFv, V domains shown)
# VH: EVQLVQSGPEVKKPGASVKVSCKASGYTFTDYFLNWVRQAPGQGLEWIGWINPNTGGTNYAQNFQGRVTVTRDASISTAYMELRSLTSADTAIYYCARGAYDYVWGSHRYVADAFDIWGQGTLVTVSS
# VL: B7 VL
# notes: phage scFv
# B12: hN1S3-135 (scFv, V domains shown)
# VH: B4 VH with Q106K
# VL: LPVLTQPPSVSEAPRQRVTISCSGSSFNIGNNAVNWYQQLPGKAPKLLIYYDDLLPSGVSDRFSGSKSGTSASLAISGLQSEDEADYYCAAWDDSLNAVVFGGGTKVTVL
# notes: phage scFv
# B13: hN1S3-153 (scFv, V domains shown)
# VH: QVQLQESGGGLVQPGGSLSLSCATSGFTFGNYVMRWVRQAPGKGLEWVSTITEGGGDFIYYADSVKGRFAISRDNSKSTVYLHMNGLRVEDTAVYYCAKSGGDDNSNYNFEYWGQGTLVTVSS
# VL: QAVLTQPSSVSGAPGQRVIISCTGTSSNTGAGYYVNWYQQLPGAAPKVLIFGNDNRPSGVPDRFSGAKSGTSASLAITGLQAEDEADYYCQSYDRSLSGWVFGGGTKLTVL
# notes: phage scFv
# B14: hN1S3-190 (scFv, V domains shown)
# VH: B10 VH
# VL: SSELTQDPAVSVALGQTVRITCQGDSLRSNYPSWYQQKPGQAPLLVIYSENRRPSGIPDRFSASRSGNTASLTITGAQAEDEADYYCHSRGSSGNHKVFGGGTQLTVL
# notes: phage scFv
# B15: hN1S3-108 (scFv, V domains shown)
# VH: QVQLVQSGAEVRKPGASVKVSCKASGYTFTDYYLHWVRQAPGLGLEWMGWINPNTGGTDYGQKFQGRVTMTRDTSINTAYMELSSLRSDDTAVYYCARGAYDYVWGSHRYVADAFDIWGQGTTVTVSS
# VL: DIVMTQSPSTLSASVGDRVTITCRASQGISSWLAWYQQKPGRAPKVLIYKASTLESGVPSRFSGSGSGTDFTLTISSLQPEDFATYYCQQSYSTPWTFGQGTKLEIK
# notes: phage scFv
# B16: N1wc16 (scFv, V domains shown)
# VH: QVQLQQSGAEVKTPGASVKVSCKASGYTFTDNYIHWVRQAPGQGLEWMGRINVNSGATNYARKFQGRVTMTGDTSISTAYMDLSRLKSDDTAVYYCARDFRYSGVDVWGQGTMVTVSS
# VL: QSVLTQPPSVSVAPGQTATLSCVGDAIERKSVHWYQQRPGQAPVLVVHDDSDRPSGIPDRISGSNSGNTATLTITRVEVGDEADYFCQVWDTSSGHDAVVFGGGTKLTVL
# notes: phage scFv
# Target: T1, human full-length Notch3 with C-terminal FLAG tag, stably expressed on 293 FlpIn (TREx) cells (human, UniProt Q9UM47 40-2321)
# T1 construct: whole, on cells; made by the same strategy as the Notch1 line; also called 293-N3; hN3
# Assay: FACS, phage scFv
row,Binder,binding result
1,B1,binds
2,B2,binds
3,B3,binds
4,B4,binds
5,B5,binds
6,B6,binds
7,B7,binds
8,B8,binds
9,B9,binds
10,B10,binds
11,B11,binds
12,B12,binds
13,B13,binds
14,B14,binds
15,B15,binds
16,B16,binds

# Target: T2, human full-length Notch1 with C-terminal FLAG tag, stably expressed on 293 FlpIn (TREx) cells (human, UniProt P46531 19-2555)
# T2 construct: tetracycline/doxycycline-induced expression from pcDNA5/FRT/TO-HN1+FLAG; also called hN1; 293_N1
# Assay: FACS, phage scFv
row,Binder,binding result
1,B1,binds
2,B2,binds
3,B3,binds
4,B4,binds
5,B5,binds
6,B6,binds
7,B7,binds
8,B8,binds
9,B9,binds
10,B10,binds
11,B11,binds
12,B12,binds
13,B13,binds
14,B14,binds
15,B15,binds
16,B16,binds
